Patent publication US20130272968A1 (Bayer, published 2013)
Changes are numbered by the printed parent chain.

T1: human prolactin receptor on cells (T47D cells; HEK293 and Ba/F cells stably transfected with human PRLR) (human, UniProt P16471 25-622)
T1 sequence (looked up): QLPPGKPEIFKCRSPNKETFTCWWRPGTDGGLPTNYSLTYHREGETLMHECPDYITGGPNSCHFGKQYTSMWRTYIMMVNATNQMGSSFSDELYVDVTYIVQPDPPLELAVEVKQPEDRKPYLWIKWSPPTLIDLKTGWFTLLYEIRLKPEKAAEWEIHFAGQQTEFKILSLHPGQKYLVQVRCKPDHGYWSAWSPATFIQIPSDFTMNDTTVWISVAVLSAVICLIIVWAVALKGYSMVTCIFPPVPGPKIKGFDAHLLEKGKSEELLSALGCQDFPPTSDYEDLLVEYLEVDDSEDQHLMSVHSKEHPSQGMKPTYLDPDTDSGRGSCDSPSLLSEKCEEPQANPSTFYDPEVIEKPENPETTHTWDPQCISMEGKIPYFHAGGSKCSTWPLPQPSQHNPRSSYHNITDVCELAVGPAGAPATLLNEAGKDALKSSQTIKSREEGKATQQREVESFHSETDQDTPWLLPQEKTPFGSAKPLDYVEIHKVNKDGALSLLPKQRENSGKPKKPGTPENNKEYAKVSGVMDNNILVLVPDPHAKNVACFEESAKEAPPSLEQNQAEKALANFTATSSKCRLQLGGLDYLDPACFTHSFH

T2: murine prolactin receptor on cells (HEK293 and Ba/F cells stably transfected with murine PRLR) (mouse, UniProt Q08501 20-608)
T2 sequence (looked up): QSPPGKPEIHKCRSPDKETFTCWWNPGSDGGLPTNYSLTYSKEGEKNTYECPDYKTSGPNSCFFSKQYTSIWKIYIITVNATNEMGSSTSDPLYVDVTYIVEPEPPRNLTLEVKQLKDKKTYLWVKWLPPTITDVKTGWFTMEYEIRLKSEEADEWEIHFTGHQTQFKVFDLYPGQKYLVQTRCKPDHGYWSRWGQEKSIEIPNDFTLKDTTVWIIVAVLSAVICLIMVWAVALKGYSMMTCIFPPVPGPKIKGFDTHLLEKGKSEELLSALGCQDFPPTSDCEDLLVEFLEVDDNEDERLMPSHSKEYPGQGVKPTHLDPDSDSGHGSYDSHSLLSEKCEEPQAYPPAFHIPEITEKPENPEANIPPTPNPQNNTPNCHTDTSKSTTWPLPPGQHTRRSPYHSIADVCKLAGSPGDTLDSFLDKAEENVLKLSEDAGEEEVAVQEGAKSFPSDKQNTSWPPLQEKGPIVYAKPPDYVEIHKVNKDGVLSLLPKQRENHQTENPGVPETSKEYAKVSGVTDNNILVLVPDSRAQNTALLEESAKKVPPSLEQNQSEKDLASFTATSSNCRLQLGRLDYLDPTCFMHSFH

T3: extracellular domain of human PRLR (soluble, monomeric, expressed in HEK293 cells) (human, UniProt P16471 25-234)
T3 construct: also called ECD-PRLR; ECD of PRLR
T3 sequence: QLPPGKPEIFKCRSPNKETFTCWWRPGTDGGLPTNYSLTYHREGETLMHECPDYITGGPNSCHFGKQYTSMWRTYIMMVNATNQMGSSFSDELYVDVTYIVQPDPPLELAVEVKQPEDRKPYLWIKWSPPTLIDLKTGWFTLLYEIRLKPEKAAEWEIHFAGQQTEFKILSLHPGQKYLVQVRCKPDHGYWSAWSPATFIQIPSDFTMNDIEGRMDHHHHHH

B1: 006-H08 (human IgG1) (antibody, V domains shown)
VH: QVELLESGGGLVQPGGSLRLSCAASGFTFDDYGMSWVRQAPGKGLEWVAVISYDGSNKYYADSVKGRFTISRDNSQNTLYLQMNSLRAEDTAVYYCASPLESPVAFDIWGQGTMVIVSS
VL: DIVLTQPPSASGTPGQRVTISCSGSNSNIGSNPVNWYQQLPGTAPKLLIYDNNKRPSGVPDRFSGSKSGTSASLAISGLRSEDEADYYCQSYDTGLSGWVFGGGTKLTVLG
B2: HE06.642 (antibody, IgG1, V domains shown)
VH: EVQLVESGGGLVQPGGSLRLSCAVSGFTFSSYGMSWVRQAPGKGLEWVATVSSGGTYTYYPDSVKGRFTISRDNSKNTLYLQMNSLRAEDTAVYYCARHRGNYYATYYYAMDYWGQGTLVTVSS
VL: DIVLTQSPDSLAVSLGERATINCKASKSVSTSGYTYMHWYQQKPGQPPKLLIYLASNRESGVPDRFSGSGSGTDFTLTISPVQAEDVATYYCQHSGELPPSFGQGTKLEIKR
B3: 001-E06 (human IgG1) (antibody, V domains shown)
VH: QVELLESGGGLVQPGGSLRLSCAASGFTFSSYWMSWVRQAPGKGLEWVSSVSDTGTDTHYADSVKGRFTISRDNSKNTLYLQMNSLRAEDTAVYYCAKTPLAYSSGWYYFDYWGQGTLVTVSS
VL: B1 VL with N26S, P33T, D51R, N53Y, K54Q, T94S, G95S, W99S
B4: 005-C04 (human IgG1) (antibody, V domains shown)
VH: EVQLLESGGGLVQPGGSLRLSCAASGFTFSSYWMHWVRQAPGKGLEWVSDISSASSYTNYADSVKGRFTISRDNSKNTLYLQMNSLRAEDTAVYYCARGLDARRMDYWGQGTLVTVSS
VL: QSVLTQPPSASGTPGQRVTISCTGSSSNIGAGYVVHWYQQLPGTAPKLLIYRNNQRPSGVPDRFSGSKSGTSASLAISGLRSEDEADYYCAAWDDSLNGWLFGGGTKLTVLG
B5: XHA06.642 (antibody, human IgG1, V domains shown)
VH: EVQLVESGGDLVKPGGSLKLSCAVSGFTFSSYGMSWVRQTPDKRLEWVATVSSGGTYTYYPDSVKGRFTISRDNAKNTLYLQMSSLKSEDSAMYYCARHRGNYYATYYYAMDYWGQGTSVTVSS
VL: DIVLTQSPASLAVSLGQGATISCRASKSVSTSGYTYMHWYQQKPGQPPKLLIYLASNLESGVPARFSGSGSGTDFTLNIHPVEEEDAATYYCQHSGELPPSFGGGTKLEIKR
B6: 006-H08-15-5 (Fab, V domains shown)
VH: EVQLLESGGGLVQPGGSLRLSCAASGFTFDDYGMSWVRQAPGKGLEMVAVISFDGSNKYYADSVKGRFTISRDNSQNTLYLQMNSLRAEDTAVYYCASPLESPVAFDIWGQGTLVTVSS
VL: QSVLTQPPSASGTPGQRVTISCSGLNSNIGGSPVNWYQQLPGTAPKLLIYDNNKRPSGVPDRFSGSKSGTSASLAISGLRSEDEADYYCQSYDEGLSGWVFGGGTKLTVL
notes: Tested as E. coli supernatant; also called maturated 006-H08 Fab variant; copies: 1 + 1
B7: 006-H08-48-5 (Fab, V domains shown)
VH: B6 VH
VL: B6 VL with S27D, I29V, G31S, S32N, E94T, L96S, G98M
notes: as for B6
B8: 006-H08-29-1 (Fab, V domains shown)
VH: B6 VH
VL: B6 VL with S27D, I29V, E94T, L96A, S97G, G98M
notes: as for B6
B9: 006-H08-39-7 (Fab, V domains shown)
VH: B6 VH
VL: B6 VL with I29V, L96S, S97G, G98M
notes: as for B6
B10: 006-H08-12-2 (Fab, V domains shown)
VH: B6 VH
VL: B6 VL with I29V, G31S, L96S, S97G, G98M
notes: as for B6
B11: 006-H08-53-27-0 (Fab, V domains shown)
VH: B6 VH with F53Y
VL: B6 VL with L25S, G31S, S32N, E94T
notes: as for B6
B12: 006-H08-33-16-0 (Fab, V domains shown)
VH: B6 VH with M47W, F53Y
VL: B6 VL with L25S, G31S, S32N
notes: as for B6
B13: 006-H08-14-6-0 (Fab, V domains shown)
VH: B6 VH with M47W, F53Y
VL: B6 VL with L25S, G31S, E94T
notes: as for B6
B14: 006-H08-35-17-4 (Fab, V domains shown)
VH: B6 VH with M47W, F53Y
VL: B6 VL with L25S, G31S, S32N, E94T, L96S
notes: as for B6
B15: 006-H08-59-30-0 (Fab, V domains shown)
VH: B6 VH with M47W
VL: B6 VL with L25S, G31S, S32N, E94T
notes: as for B6
B16: 006-H08-63-32-4 (Fab, V domains shown)
VH: B6 VH with M47W, F53Y
VL: B6 VL with G31S, S32N, E94T
notes: as for B6
B17: 006-H08-37-19-0 (Fab, V domains shown)
VH: B6 VH with M47W, F53Y
VL: B6 VL with L25S, G31S, S32N, E94T, G98M
notes: as for B6
B18: 006-H08-32-2 (Fab, V domains shown)
VH: B6 VH
VL: B6 VL with I29V, G31S, S32N, S97G
notes: as for B6
B19: 006-H08-13-6-1 (Fab, V domains shown)
VH: B6 VH with M47W, F53Y
VL: B6 VL with L25S, S32N, E94T
notes: as for B6
B20: 006-H08-65-33-2 (Fab, V domains shown)
VH: B6 VH with M47W, F53Y
VL: B6 VL with L25S, S27D, G31S, S32N, E94T
notes: as for B6
B21: 006-H08-68-35-2 (Fab, V domains shown)
VH: B6 VH with M47W, F53Y
VL: B6 VL with L25S, I29V, G31S, S32N, E94T
notes: as for B6
B22: 006-H08-36-17-0 (Fab, V domains shown)
VH: B6 VH with M47W, F53Y
VL: B6 VL with L25S, G31S, S32N, E94T, S97G
notes: as for B6
B23: 006-H08-35-17-1 (Fab, V domains shown)
VH: B6 VH with M47W, F53Y
VL: B6 VL with L25S, G31S, S32N, E94T, L96A
notes: as for B6

Target: T1, human prolactin receptor on cells (T47D …)
Assay: cell-based or functional assay

IC50, prolactin-activated luciferase reporter gene activity, HEK293 cells stably transfected with hPRLR	Binder
0.83 µg/mL	B1
0.63 µg/mL	B2

Target: T2, murine prolactin receptor on cells …
Assay: cell-based or functional assay

IC50, inhibition of prolactin-activated proliferation of Ba/F cells stably expressing the murine prolactin receptor	IC50, prolactin-activated luciferase reporter gene activity, HEK293 cells stably transfected with mPRLR	Binder
43.7 µg/mL	–	B3
0.74 µg/mL	0.45 µg/mL	B4
–	> 50 µg/mL	B5
> 30 µg/mL	–	B2

Target: T3, extracellular domain of human PRLR …
Assay: HTRF competition: Fab-containing E. coli supernatant with biotinylated ECD of human PRLR and streptavidin-europium, then Alexa Fluor 647-labelled IgG1 006-H08 as competitor; signal at 665 nm after 5 to 65 min; lower signal than control Fab 006-H08 = improved binding

binding result	Binder
binds	B6
binds	B7
binds	B8
binds	B9
binds	B10

Target: T3, extracellular domain of human PRLR …
Assay: HTRF competition: Fab-containing E. coli supernatant with biotinylated ECD of human PRLR and streptavidin-europium, then Alexa Fluor 647-labelled IgG1 006-H08 as competitor; signal at 665 nm after 5 to 65 min; lower signal than control Fab 006-H08 = improved binding [Figure 21]
Description: Normalized E. coli-derived supernatants and 8 nM biotinylated extracellular domain of PRLR together with 1 nM Streptavidin-Europium were incubated in 96 well-microtiter plates for 30 min. Afterwards 200 mM KF and 50 nM Alexa Fluor 647-labeled IgG1 of 006-H08 were added. This mixture was incubated at room temperature for 5, 20, 35, 50, and 65 minutes, respectively. At the indicated time points, the absorption at 665 nm (and 620 nm) was measured using EnVision MultilabelReader (Perkin Elmer).

binding result	Binder
binds	B11
binds	B12
binds	B13
binds	B14
binds	B15
binds	B16
binds	B17
binds	B18
binds	B19
binds	B20
binds	B21
binds	B22
binds	B23
